Laboratory results published in ChEMBL document CHEMBL1268867, “ATPases as drug targets: insights from heat shock proteins 70 and 90” (J Med Chem, 2010).

Experiments:
[1] = Binding affinity to FGFR
[2] = tested on: Nc1ncnc2c1ncn2[C@@H]1O[C@H](COP(=O)(O)OP(=O)(O)O)[C@@H](O)[C@H]1O; settings: Saccharomyces cerevisiae
Description: Binding affinity to yeast Hsp90

[3] = tested on: Nc1ncnc2c1ncn2[C@@H]1O[C@H](COP(=O)(O)OP(=O)(O)OP(=O)(O)O)[C@@H](O)[C@H]1O; experiment: Binding affinity to CDK2/cyclin E; assay type: protein-complex assay

Nc1ncnc2c1ncn2[C@@H]1O[C@H](COP(=O)(O)OP(=O)(O)OP(=O)(O)O)[C@@H](O)[C@H]1O
Km [1]: 70 µM

ATP-dependent molecular chaperone HSP82 (Saccharomyces cerevisiae S288c), P02829
Km [2]: 150 µM

Cyclin-dependent kinase 2/cyclin E (Homo sapiens) (from UniProt P24864+P24941+O96020)
Km [3]: 3.6 µM
